From patent US20180185504A1 (Regeneron, published 2018)

T1: mfPRLR.mmh (soluble monomeric macaca fascicularis PRLR) (macaca fascicularis)
T1 construct: soluble monomeric PRLR protein; also called macaca fascicularis (mf) PRLR.mmh; monkey PRLR
T1 chain: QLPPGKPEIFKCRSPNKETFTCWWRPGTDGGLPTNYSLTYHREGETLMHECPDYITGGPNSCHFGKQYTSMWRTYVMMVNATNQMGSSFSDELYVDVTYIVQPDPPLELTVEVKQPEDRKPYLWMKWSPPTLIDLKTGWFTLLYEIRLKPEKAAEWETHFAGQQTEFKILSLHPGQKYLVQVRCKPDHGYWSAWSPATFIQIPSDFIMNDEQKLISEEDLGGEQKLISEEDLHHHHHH

T2: hPRLR.mmh (soluble monomeric human PRLR) (human)
T2 construct: soluble monomeric PRLR protein
T2 chain: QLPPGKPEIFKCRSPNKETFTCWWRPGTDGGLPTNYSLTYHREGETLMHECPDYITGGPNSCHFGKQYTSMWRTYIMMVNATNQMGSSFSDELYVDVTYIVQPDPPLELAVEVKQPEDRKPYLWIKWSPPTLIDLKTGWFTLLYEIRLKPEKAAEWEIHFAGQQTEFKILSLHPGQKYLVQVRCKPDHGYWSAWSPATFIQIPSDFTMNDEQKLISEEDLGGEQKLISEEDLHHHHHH

T3: hPRLR.mFc (soluble dimeric human PRLR) (human)
T3 construct: dimeric PRLR construct
T3 chain: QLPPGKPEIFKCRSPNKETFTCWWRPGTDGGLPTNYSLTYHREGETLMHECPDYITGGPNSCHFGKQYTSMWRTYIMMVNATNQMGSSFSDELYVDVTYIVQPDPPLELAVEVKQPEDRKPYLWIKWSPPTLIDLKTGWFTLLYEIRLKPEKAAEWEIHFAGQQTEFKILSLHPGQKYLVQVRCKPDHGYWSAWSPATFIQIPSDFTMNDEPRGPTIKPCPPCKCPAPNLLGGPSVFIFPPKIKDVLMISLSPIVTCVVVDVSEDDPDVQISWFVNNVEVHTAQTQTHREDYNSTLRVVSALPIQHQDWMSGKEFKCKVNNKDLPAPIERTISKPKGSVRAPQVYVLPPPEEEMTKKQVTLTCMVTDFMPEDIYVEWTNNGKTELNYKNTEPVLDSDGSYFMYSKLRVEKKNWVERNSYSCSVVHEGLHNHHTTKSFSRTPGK

T4: human PRLR on cells (endogenous on T47D, T47D#11, MCF7); introduced in HEK293/hPRLR/STAT5-Luc, 293/hPRLR, … (human, UniProt P16471 25-622)
T4 sequence: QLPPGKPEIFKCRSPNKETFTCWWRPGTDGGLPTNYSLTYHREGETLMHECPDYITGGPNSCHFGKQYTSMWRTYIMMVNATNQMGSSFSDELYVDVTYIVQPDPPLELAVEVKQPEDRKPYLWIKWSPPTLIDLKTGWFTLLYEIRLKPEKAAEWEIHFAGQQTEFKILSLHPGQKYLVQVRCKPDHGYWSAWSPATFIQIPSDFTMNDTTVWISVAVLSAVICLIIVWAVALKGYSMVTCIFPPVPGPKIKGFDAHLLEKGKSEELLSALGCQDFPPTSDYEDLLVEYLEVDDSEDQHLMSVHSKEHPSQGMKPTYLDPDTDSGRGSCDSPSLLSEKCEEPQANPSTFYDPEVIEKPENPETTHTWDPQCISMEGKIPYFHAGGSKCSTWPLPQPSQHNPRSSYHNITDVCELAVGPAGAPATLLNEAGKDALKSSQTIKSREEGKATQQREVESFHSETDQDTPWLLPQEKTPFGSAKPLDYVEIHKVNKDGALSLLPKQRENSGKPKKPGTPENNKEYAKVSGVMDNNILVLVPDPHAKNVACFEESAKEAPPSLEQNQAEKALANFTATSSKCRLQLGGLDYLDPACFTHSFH


Legend:
[1] = molecular target: T1, mfPRLR.mmh (soluble monomeric macaca …); assay: SPR (Biacore), antibody capture, 37 C
Experimental: (§1) Measurements were conducted on a T200 Biacore instrument. Kinetic association (kₐ) and dissociation (kd) rate constants were determined by processing and fitting the data to a 1:1 binding model using Scrubber 2.0 curve fitting software.

[2] = molecular target: T2, hPRLR.mmh (soluble monomeric human PRLR); assay: SPR (Biacore), antibody capture, 37 C
Experimental: as §1

[3] = molecular target: T3, hPRLR.mFc (soluble dimeric human PRLR); assay: SPR (Biacore), antibody capture, 37 C
Experimental: as §1

[4] = molecular target: T4, human PRLR on cells (endogenous on …); assay: cell-based or functional assay

Row | Binder | Kd [1] [nM] | T 1/2 [1] [min] | koff [1] [s⁻¹] | kon [1] [M⁻¹ s⁻¹] | Kd [2] [nM] | T 1/2 [2] [min] | koff [2] [s⁻¹] | kon [2] [M⁻¹ s⁻¹] | Kd [3] [nM] | T 1/2 [3] [min] | koff [3] [s⁻¹] | kon [3] [M⁻¹ s⁻¹] | IC50 of Blocking 5 nM PRL [M] (STAT5-Luc reporter, HEK293/hPRLR/STAT5-Luc cells) [4] | Percent Blocking at 100 nM Antibody (STAT5-Luc reporter) [4] [%]
1 | H1H6800P (antibody, human IgG1, V domains shown, human IgG1 Fc (H1H)) VH: EVQLVESGGGLVQPGRSLRLSCAASGFTFDGYAMHWVRQGPGKGLEWVSGISWYSDTLGYADSVKGRFTISRDNAKNSLYLQMNSLRTEDTAFYYCAKISSSGWAFDYWGQGTLVTVSS VL: EIVLTQSPGTLSLSPGERATLSCRASHSVSSAYLAWYQQKPGQTPRLLIYGTSSRATGIPDRFSGSGSGTDFTLTISRLEPEDFAVYYCQQYGSSPLFTFGPGTKVDIK | 2.48 | 11 | 0.00109 | 439000 | 1.47 | 10 | 0.00119 | 808000 | 0.229 | 79 | 0.000147 | 644000 | 3.55e-10 | 100
2 | H1H6803P (antibody, human IgG1, V domains shown, human IgG1 Fc (H1H)) VH: EVQLVESGGGVVRPGGSLRLSCAASGFKFDDYGMTWVRHVPGKGLEWVSGINWNGGRTGYTDSVKGRFTISRDNAKNSLYLQMNSLRAEDTALYHCAGARRDAFDIWGQGTMVTVSS VL: DIQMTQSPSSLSASIGDRVTITCRASQNIIKYLNWYQQNAGKAPKLLIYTASSLQSGVPSRFSGSGSGTDFTLTISSLQPEDFATYYCQQSSSSPYTFGQGTKLEIK | 7.28 | 18 | 0.000636 | 87300 | 2.83 | 32 | 0.000364 | 129000 | 0.461 | 186 | 6.2e-05 | 134000 | 6.27e-10 | 100
3 | H1H6785P (antibody, human IgG1, V domains shown, human IgG1 Fc (H1H)) VH: EVQLVESGGGLVQPGGSLRLSCAASGFTFSSYEMNWVRQAPGKGLEWISYISSRGGTIYYADSIKGRFTIYRDNARNSLYLQMNSLRAEDTAIYYCARLSGVDIFDIWGQGTMVTVSS VL: DIQMTQSPSSLSASVGDRVTITCRASQGISNYLAWYQQKPGKVPKLLIYFASTLQSGVPSRFSGGGSGTDFTLTISSLQPEDVATYYCQRYNSAPLTFGGGTKVEIK | 1.52 | 26 | 0.00045 | 297000 | 1.14 | 24 | 0.000484 | 426000 | 0.256 | 99 | 0.000117 | 456000 | 3.45e-10 | 100
4 | H1H6765P (antibody, human IgG1, V domains shown, human IgG1 Fc (H1H)) VH: EVQLVESGGGVVRPGGSLRLSCVGSGFSFDDHGMNWVRQGPGKGLEWVSGFNWNGGSTNYAESVKGRFTISRDNARNSLFLQMNSLRAEDTALYYCVRGRSGWFNDAFDVWGPGTMVTVSS VL: EIVLTQSPGTLSLSPGERATLSCRASQTINSNYLAWYRQKPGQTPRLLIYGTSSRATGIPDRFSGSGSGTDFSLTISRLEPEDFAVFYCQQYAGLPTFGPGTKVDIK | 0.0504 | 215 | 5.37e-05 | 1.06e+06 | 0.292 | 32 | 0.000366 | 1.25e+06 | 0.128 | 112 | 0.000103 | 801000 | 3.3e-11 | 100
5 | H1H6975N (antibody, human IgG1, V domains shown, also called H2M6975N) VH: EVHLVESGGGLVQPGGSLRLSCAASGFTFSSYEMNWVRQTPGKGLEWISHISSRSVIIYYADSVKGRFTISRDNAKNSLFLQMNSLRAEDTAVYFCAGITIFGIPEYWGQGTLVTVSS VL: EIVLTQSPATLSLSPGERATLSCRASQSVSSYFAWYQQKPGQAPRLLIYDASSRATGIPTRFSGSGSGTDFTLTISSLEPEDFAVYYCQQRSSWPITFGQGTRLEIK | 2.27 | 36.4 | 0.000317 | 140000 | 1.29 | 42.3 | 0.000273 | 211000 | 0.184 | 163 | 7.09e-05 | 386000 | 2.41e-10 | 100
6 | H1H6976N (antibody, human IgG1, V domains shown, also called H2M6976N) VH: EVQLLESGGGFVQPGGSLRLSCAASGFTFSSYAMSWVRQAPGKGLEWVSIISSNGRYTYYADSVKGRFTISRDNSKNTLYLQMNSLRAEDTAVYYCATVTGDWFDPWGQGTLVTVSS VL: DIQLTQSPSFLSASVGDRVTITCWASQDIDISLAWYQQKPGKAPKLLIYAASTLQSGVPSKFSGSGSGTDFTLTISSLQPEDFSTYYCQQLNSYPITFGQGTRLDIK | 5.24 | 3.7 | 0.00316 | 603000 | 4.04 | 3.7 | 0.00314 | 777000 | 0.102 | 82.6 | 0.00014 | 1.37e+06 | – | 23
7 | H1H6793P (antibody, human IgG1, V domains shown, human IgG1 Fc (H1H)) VH: EVQLVESGGGLVQPGGSLRLSCAASGFSFSIYAMSWFRQAPGKGLEWVSAINGRGDGTHYADSVKGRFTISRDNSKTTLYLQMSSLRAEDTAVYYCAKPVMSTNGFDIWGQGTMVTVSS VL: DIQMTQSPSTLSASVGDRVTITCRASQSISSWLAWYQLKPGKAPKLLIYKASNLESGVPSRFSGSGSGTEFTLTISSLQPDDFATYYCQQYNIYWTFGQGTKVEIK | 4.59 | 11 | 0.00107 | 233000 | 3.02 | 11 | 0.00102 | 339000 | 0.347 | 81 | 0.000142 | 410000 | – | 65
8 | H1H6782P (antibody, human IgG1, V domains shown, human IgG1 Fc (H1H)) VH: EVQLVESGGGLVQPGRSLRLSCAASGFTFDDYAMHWVRQAPGKGLEWVSGIIWNSGHIGYGDSVKGRFTISRDNAKKSLYLQMNSLRAEDTALYYCARDSGRYQSYFDYWGQGTLVTVSS VL: DIQMTQSPSTLSASVGDRVTITCRASHIISSWLAWYQQKPGKAPKVLIFKASSLESGVPSRFSGSGSGTEFTLTISSLQPDDFATYYCQQYNTYSRTFGQGTKVEIK | 1.99 | 15 | 0.000767 | 385000 | 1.28 | 16 | 0.000716 | 557000 | 0.217 | 89 | 0.00013 | 598000 | – | 0
9 | H1H6762P (antibody, human IgG1, V domains shown, human IgG1 Fc (H1H)) VH: QVQLVESGGGVVQPGRSLRLSCAASGFTFSHYGMVWVRQPPGKGLEWVALISFDGTTKYYADSVKGRFTISRDNSKNTLYLQMNSLRAEDTAVYFCVGAIAAAAFDLWGRGTLVTVSS VL: EIVMTQSPATLSVSPGERATLSCRASQSVSSDLAWYQQKPGQAPRLLIYSASARATGIPARFTGSGSGTDFTLTISSLQSEDFAVYYCQQYNNWPMYTFGQGTKLEIK | 0.823 | 21 | 0.000558 | 679000 | 0.48 | 25 | 0.000455 | 948000 | 0.128 | 112 | 0.000103 | 801000 | 2.19e-11 | 100
